{
  "source": "paper PMC2850170",
  "about": "(The Biochemical journal, 2009)",
  "molecular_target": "the molecule itself",
  "test": "SEC",
  "data": [
    {"protein": "murine hexosaminidase D, short form (enzyme, mouse, UniProt Q3U4H6 1-486, looked up) MSSPTPFKMRLVHLDLKGAPPKVSYLSEVFPLFHALGANGLLIEYEDMFPYEGHLRLLRAKHAYSPSEVTEILRLARLSELEVIPLVQTFGHMEFVLKHAAFAHLREVALFPNTLNPHEAESLALVQAMIDQILELHRDVRWLHIGCDEVYYLGEGETSKQWLQQEQNSHAKLCLSHMQAVASHVLTQHPGVTPLVWDDMLRDIPQEQLKASGVPQLVEPVLWDYGADLDVHGKVFLIGKYQECGFQRLWAASAFKGATGASQALPPVEHHIRNHELWLQVAGSGPKDALQGIILTGWQRYDHFSVLCELLPVGIPSLAACLQSLVHGGFAEDVRLRAERFLGVSSLEIADTVSEGAGSFPGSDIHALVTQISLHLRSSVDTLLERNRYVTGWFSPYHRRRKLVHPVMIQHIQPEALSLLSRWNNLVQQLEVALQPVFYPDTIEEWLEENVLPSLQRLQDLLQDLGEAAARQPPPTSPGWDTGQNP", "values": [
      {"measurement": "stoichiometry N", "result": 2}
    ]}
  ]
}
